From article PMC12816604, “Structural basis of double-stranded RNA recognition by the J2 monoclonal antibody” come the findings set out here.

Usually Kd stands for a measure of binding affinity in units of concentration.

What all share (experiment): BLI; 100 mM KCl; BLI: 25 mM Tris-HCl pH 7.5, 2 mM MgCl2, KCl 100 mM (6-20 bp and mutants), 200 mM (30 bp) or 400 mM (40, 50 bp), 25 C; IgG immobilised on Protein A probes
Details in all cases: protein: recombinant;recombinant; tags: His8 (C-term);; chain copies: 2;2; blunt
For orientation: Biolayer interferometry detects binding as a change in optical thickness at a sensor tip.

Data set [1] concerns the target J2 IgG light chain Y38F;J2 IgG heavy chain (HC-TEV-His8) (Mus musculus;Mus musculus, UniProt ; ;, Y38F|).
For data set [2], the target named is J2 IgG heavy chain (HC-TEV-His8) Y52F;J2 IgG light chain (Mus musculus;Mus musculus, UniProt ; ;, Y52F|).
Data set [3] deals with J2 IgG light chain Y31F;J2 IgG heavy chain (HC-TEV-His8) (Mus musculus;Mus musculus, UniProt ; ;, Y31F|).
In data set [4] the target is J2 IgG heavy chain (HC-TEV-His8) Y54A;J2 IgG light chain (Mus musculus;Mus musculus, UniProt ; ;, Y54A|).
Data set [5] deals with J2 IgG light chain Y31A;J2 IgG heavy chain (HC-TEV-His8) (Mus musculus;Mus musculus, UniProt ; ;, Y31A|).
In data set [6] the target is J2 IgG heavy chain (HC-TEV-His8) A30P;J2 IgG light chain (Mus musculus;Mus musculus, UniProt ; ;, A30P|).
Data set [7] addresses J2 IgG heavy chain (HC-TEV-His8) Y54F;J2 IgG light chain (Mus musculus;Mus musculus, UniProt ; ;, Y54F|).
Data set [8] deals with J2 IgG heavy chain (HC-TEV-His8);J2 IgG light chain (Mus musculus;Mus musculus, UniProt ; ;, |).
Data set [9] has as its target J2 IgG heavy chain (HC-TEV-His8) Y50F;J2 IgG light chain (Mus musculus;Mus musculus, UniProt ; ;, Y50F|).

Sequence of J2 IgG heavy chain (HC-TEV-His8);J2 IgG light chain (chain, as listed by the source |, chain 1 of 2): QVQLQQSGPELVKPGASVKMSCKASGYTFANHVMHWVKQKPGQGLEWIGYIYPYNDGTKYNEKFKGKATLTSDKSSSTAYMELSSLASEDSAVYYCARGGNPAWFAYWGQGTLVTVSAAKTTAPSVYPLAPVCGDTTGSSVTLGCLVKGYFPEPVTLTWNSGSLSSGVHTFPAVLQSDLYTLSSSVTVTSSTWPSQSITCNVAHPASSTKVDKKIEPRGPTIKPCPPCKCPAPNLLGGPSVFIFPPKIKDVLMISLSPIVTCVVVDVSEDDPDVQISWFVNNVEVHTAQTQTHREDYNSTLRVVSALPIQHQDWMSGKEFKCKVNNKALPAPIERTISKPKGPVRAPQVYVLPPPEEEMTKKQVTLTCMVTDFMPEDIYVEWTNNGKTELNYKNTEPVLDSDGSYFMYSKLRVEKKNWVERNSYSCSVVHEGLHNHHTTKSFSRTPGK
Sequence of J2 IgG heavy chain (HC-TEV-His8);J2 IgG light chain (chain, as listed by the source |, chain 2 of 2): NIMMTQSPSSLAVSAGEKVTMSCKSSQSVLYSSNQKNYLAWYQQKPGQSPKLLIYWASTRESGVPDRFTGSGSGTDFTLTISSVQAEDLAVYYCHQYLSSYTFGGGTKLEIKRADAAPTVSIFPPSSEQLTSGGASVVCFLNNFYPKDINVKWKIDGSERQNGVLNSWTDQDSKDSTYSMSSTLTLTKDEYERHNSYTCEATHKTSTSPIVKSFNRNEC
Sequence of J2 IgG light chain Y31F;J2 IgG heavy chain (HC-TEV-His8) (chain, as listed by the source Y31F| | Y31F Y31F, chain 1 of 2): as the sequence (chain, as listed by the source |, chain 2 of 2) above, with Y31F counted along it
Sequence of J2 IgG light chain Y31F;J2 IgG heavy chain (HC-TEV-His8) (chain, as listed by the source Y31F| | Y31F Y31F, chain 2 of 2): as the sequence (chain, as listed by the source |, chain 1 of 2) above
Sequence of J2 IgG heavy chain (HC-TEV-His8) A30P;J2 IgG light chain (chain, as listed by the source A30P| | A30P A30P, chain 1 of 2): as the sequence (chain, as listed by the source |, chain 1 of 2) above, with A30P counted along it
Sequence of J2 IgG heavy chain (HC-TEV-His8) A30P;J2 IgG light chain (chain, as listed by the source A30P| | A30P A30P, chain 2 of 2): as the sequence (chain, as listed by the source |, chain 2 of 2) above
Sequence of J2 IgG light chain Y38F;J2 IgG heavy chain (HC-TEV-His8) (chain, as listed by the source Y38F| | Y38F Y38F, chain 1 of 2): as the sequence (chain, as listed by the source |, chain 2 of 2) above, with Y38F counted along it
Sequence of J2 IgG light chain Y38F;J2 IgG heavy chain (HC-TEV-His8) (chain, as listed by the source Y38F| | Y38F Y38F, chain 2 of 2): as the sequence (chain, as listed by the source |, chain 1 of 2) above
Sequence of J2 IgG light chain Y31A;J2 IgG heavy chain (HC-TEV-His8) (chain, as listed by the source Y31A| | Y31A Y31A, chain 1 of 2): as the sequence (chain, as listed by the source |, chain 2 of 2) above, with Y31A counted along it
Sequence of J2 IgG light chain Y31A;J2 IgG heavy chain (HC-TEV-His8) (chain, as listed by the source Y31A| | Y31A Y31A, chain 2 of 2): as the sequence (chain, as listed by the source |, chain 1 of 2) above
Sequence of J2 IgG heavy chain (HC-TEV-His8) Y52F;J2 IgG light chain (chain, as listed by the source Y52F| | Y52F Y52F, chain 1 of 2): as the sequence (chain, as listed by the source |, chain 1 of 2) above, with Y52F counted along it
Sequence of J2 IgG heavy chain (HC-TEV-His8) Y52F;J2 IgG light chain (chain, as listed by the source Y52F| | Y52F Y52F, chain 2 of 2): as the sequence (chain, as listed by the source |, chain 2 of 2) above
Sequence of J2 IgG heavy chain (HC-TEV-His8) Y54A;J2 IgG light chain (chain, as listed by the source Y54A| | Y54A Y54A, chain 1 of 2): as the sequence (chain, as listed by the source |, chain 1 of 2) above, with Y54A counted along it
Sequence of J2 IgG heavy chain (HC-TEV-His8) Y54A;J2 IgG light chain (chain, as listed by the source Y54A| | Y54A Y54A, chain 2 of 2): as the sequence (chain, as listed by the source |, chain 2 of 2) above
Sequence of J2 IgG heavy chain (HC-TEV-His8) Y50F;J2 IgG light chain (chain, as listed by the source Y50F| | Y50F Y50F, chain 1 of 2): as the sequence (chain, as listed by the source |, chain 1 of 2) above, with Y50F counted along it
Sequence of J2 IgG heavy chain (HC-TEV-His8) Y50F;J2 IgG light chain (chain, as listed by the source Y50F| | Y50F Y50F, chain 2 of 2): as the sequence (chain, as listed by the source |, chain 2 of 2) above
Sequence of J2 IgG heavy chain (HC-TEV-His8) Y54F;J2 IgG light chain (chain, as listed by the source Y54F| | Y54F Y54F, chain 1 of 2): as the sequence (chain, as listed by the source |, chain 1 of 2) above, with Y54F counted along it
Sequence of J2 IgG heavy chain (HC-TEV-His8) Y54F;J2 IgG light chain (chain, as listed by the source Y54F| | Y54F Y54F, chain 2 of 2): as the sequence (chain, as listed by the source |, chain 2 of 2) above

B1: 20-bp dsRNA (dsRNA)
RNA 1: GUUGUAAAGAAGGUCAAUAU
RNA 2: AUAUUGACCUUCUUUACAAC
With B1, the Kd was 0.15 ± 0.02 µM in data set [1]; 0.22 µM in [2]; 0.36 ± 0.06 µM in [3]; 0.3 ± 0.03 µM in data set [4]; 0.94 ± 0.56 µM in data set [5]; 0.12 ± 0.02 µM in data set [6]. Further, the Kd was 0.71 ± 0.17 µM in data set [7], 0.12 ± 0.01 µM in data set [8] and 0.43 ± 0.04 µM in data set [9].
